Experimental data taken from PMC7840129, “Structural basis for heme-dependent NCoR binding to the transcriptional repressor REV-ERBβ” (Science Advances, 2021).
Like-named read-outs stand apart in the source and are kept apart here.

Target: T1, Apo REV-ERBβ LBD (Homo sapiens, UniProt Q14995)
T1 construct: The human REV-ERBβ LBD (residues 381 to 579) was previously cloned; 6xHis with 3C protease cleavage site (N, cleaved yes); made in house; host or cells: E. coli BL21(DE3)
T1 sequence (Q14995 381-579): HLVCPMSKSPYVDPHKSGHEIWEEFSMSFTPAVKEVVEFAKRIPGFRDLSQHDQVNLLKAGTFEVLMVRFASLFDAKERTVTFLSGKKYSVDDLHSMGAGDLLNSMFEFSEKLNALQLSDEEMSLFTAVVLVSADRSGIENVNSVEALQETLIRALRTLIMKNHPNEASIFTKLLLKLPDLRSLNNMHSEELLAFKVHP
Experiment: ITC, NCoR RID constructs with apo REV-ERBβ LBD
Type: binding
Settings: WT RID; for Kd: LBD 150 μM (2 × 20 injections) into 15 μM RID, pH 7.4, 25°C, two nonsymmetric sites, microscopic K model
Description: Human REV-ERBβ LBD was expressed in BL21(DE3) Escherichia coli cells with an N-terminal hexahistidine (6xHis) tag separated by a 3C protease cleavage site. Expression was performed using auto-induction media: Cells were grown at 37°C for 5 hours, 30°C for 1 hour, and 18°C for 16 hours before harvesting by centrifugation. Pellets were resuspended in potassium phosphate lysis buffer [40 mM potassium phosphate (pH 7.4), 500 mM KCl, 15 mM imidazole, and 1 mM dithiothreitol (DTT)] supplemented with leupeptin, pepstatin A, lysozyme, and deoxyribonuclease (DNase) I and sonicated on ice. […] A 5-ml aliquot of 6xHis-tagged protein was purified by size exclusion chromatography using a Superdex 75 column equilibrated in time-resolved fluorescence energy transfer (TR-FRET) assay buffer [20 mM potassium phosphate (pH 7.4), 50 mM KCl, and 0.5 mM EDTA]; purified aliquots were stored at −80°C for TR-FRET assays. To cleave the 6xHis tag from the remaining protein, it was incubated overnight with 3C protease (generated in-house) via dialysis; then, protein was reloaded onto the HisTrap columns, and the flow-through was collected. Last, aggregates were removed by size exclusion chromatography using a Superdex 75 column and Hepes gel filtration buffer [20 mM Hepes (pH 7.4), 50 mM KCl, and 0.5 mM EDTA]. Greater than 95% purity was confirmed by SDS-PAGE. Protein was aliquoted and stored at −80°C.
ITC experiments were performed using a MicroCal iTC200. All experiments were solvent-matched and contained 0.1% DMSO (peptide vehicle) and 0.2% 0.2 M solution of NaOH (heme vehicle) final concentrations. NITPIC software ([37]) was used to calculate baselines and integrate curves and prepare experimental data for fitting in SEDPHAT, which was used to generate final binding affinity and thermodynamic parameter measurements ([38]).Final figures were exported to GUSSI for publication-quality figure preparation ([39]).
[…] REV-ERBβ LBD in the syringe was titrated into the RID in the sample cell as described above, with the exception that a total of 4 molar equivalents were titrated over 20 injections. […] For apo LBD into WT RID, data were fit to A + B ↔ AB + B ↔ BA + A ↔ BAB, with two nonsymmetric sites, microscopic K model in SEDPHAT. For apo LBD into ΔID2, data were fit to an A + B ↔ AB hetero-association model in SEDPHAT. For heme-bound LBD into WT RID, data were fit to an A + B ↔ AB hetero-association model in SEDPHAT.
NCoR RID constructs (including WT, ΔID1, ΔID2, and ΔID1ΔID2) were transformed into BL21(DE3) E. coli cells, which were grown in 2 liters of Terrific Broth media [yeast extract (24 g/liter), tryptone (12 g/liter), KH2PO4 ([…]), K2HPO4 ([…]), and glycerol (4 ml/liter)] at 37°C until OD600 reached 0.7 to 0.8. Expression was induced with 0.75 mM IPTG for 2 hours at 37°C before cells were harvested by centrifugation. Pellets were washed 1× with phosphate-buffered saline and stored at −80°C until purification. Pellets were resuspended on ice in Hepes lysis buffer [25 mM Hepes (pH 7.4), 150 mM NaCl, 2 M urea, and 15 mM imidazole] supplemented with 1 mM DTT, pepstatin A, leupeptin, lysozyme, DNase I, phenylmethylsulfonyl fluoride, and 0.1% Tween 20, and cell slurry was sonicated on ice. Lysed cells were centrifuged at 20,000g for 30 min at 4°C, and soluble lysate was filtered before IMAC purification using 2 × 5 ml HisTrap columns (GE Healthcare) affixed to an ÄKTA pure; elution buffer was 25 mM Hepes (pH 7.4), 150 mM NaCl, and 500 mM imidazole. Fractions were pooled; additional protease inhibitors were added, and protein was dialyzed against 25 mM Hepes (pH 7.0), 150 mM NaCl, and 1 mM DTT with Tobacco etch virus (TEV) protease to cleave the Trx-6xHis tag at 4°C overnight. Cleaved protein was reloaded on HisTrap columns and eluted with 50 mM bis-tris (pH 6.7), 150 mM NaCl, and 1 mM DTT. […]

B1: WT RID: mouse NCoR RID (residues 1942 to 2208 in the X50 splice variant) (protein, UniProt Q60974 1942-2208, looked up, fragment)
chain: TITAANFIDVIITRQIASDKDARERGSQSSDSSSSLSSHRYETASDAIEVISPASSPAPPQEKPQAYQPDMVKANQAENESTRQYEGPLHHYRSQQESPSPQQQPPLPPSSQSEGMGQVPRTHRLITLADHICQIITQDFARNQVPSQASTSTFQTSPSALSSTPVRTKTSSRYSPESQSQTVLHPRPGPRVSPENLVDKSRGSRPGKSPERSHIPSEPYEPISPPQGPAVHEKQDSMLLLSQRGVDPAEQRSDSRSPGSISYLPSF
modifications: X50 splice variant
LBD:RID stoichiometry: two apo LBDs interact with one RID, most likely with positive cooperativity
Kd (95% CI, read-out: KD, Site 1): 12 nM
Kd (95% CI, read-out: KD, Site 2): 740 nM
TΔS, Site 1 (site 1, 25°C, 95% CI): 2.5 kcal/mol
ΔG, Site 1 (site 1, 25°C, 95% CI): -10.8 kcal/mol
ΔH, Site 1 (site 1, 25°C, 95% CI): -8.3 kcal/mol
TΔS, Site 2 (site 2, 25°C, 95% CI): 12 (95% CI: 11 to13) kcal/mol
ΔG, Site 2 (site 2, 25°C, 95% CI): -8.4 kcal/mol
ΔH, Site 2 (site 2, 25°C, 95% CI): 3.2 kcal/mol
